According to paper PMC2842088 (Biochemistry, 2009):

T1: HpxO (Klebsiella pneumoniae, UniProt A6T923)
T1 sequence (A6T923 1-384): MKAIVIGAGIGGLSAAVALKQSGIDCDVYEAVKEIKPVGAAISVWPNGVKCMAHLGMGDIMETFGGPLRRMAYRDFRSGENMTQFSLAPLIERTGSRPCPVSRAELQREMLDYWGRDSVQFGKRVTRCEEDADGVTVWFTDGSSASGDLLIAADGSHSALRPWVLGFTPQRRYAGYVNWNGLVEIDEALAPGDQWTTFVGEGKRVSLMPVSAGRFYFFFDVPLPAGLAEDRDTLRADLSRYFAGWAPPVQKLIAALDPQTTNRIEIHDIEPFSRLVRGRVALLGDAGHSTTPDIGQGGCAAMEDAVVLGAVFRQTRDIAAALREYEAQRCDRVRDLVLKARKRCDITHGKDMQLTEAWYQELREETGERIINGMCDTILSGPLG


Columns and labels:
HpxO = biological target: T1, HpxO; assay: steady-state rate against NADPH, no saturation; assay type: biochemical; conditions: read-out: Km,NADPH; urate as co-substrate; printed as lower limit
purified protein = substrate: O=c1[nH]c(=O)c2[nH]c(=O)[nH]c2[nH]1; assay: purified protein; assay type: biochemical, Klebsiella pneumoniae; conditions: NADH as co-substrate, saturating (1.5 mM)

Molecule | Km (HpxO) [µM] | Km (purified protein) [µM] | kcat (purified protein) [s⁻¹]
NC(=O)C1=CN([C@@H]2O[C@H](COP(=O)(O)OP(=O)(O)OC[C@H]3O[C@@H](n4cnc5c(N)ncnc54)[C@H](OP(=O)(O)O)[C@@H]3O)[C@@H](O)[C@H]2O)C=CC1 [NADPH] | > 1000 |  | 
HpxO (Klebsiella pneumoniae subsp. pneumoniae MGH 78578) (protein) MKAIVIGAGIGGLSAAVALKQSGIDCDVYEAVKEIKPVGAAISVWPNGVKCMAHLGMGDIMETFGGPLRRMAYRDFRSGENMTQFSLAPLIERTGSRPCPVSRAELQREMLDYWGRDSVQFGKRVTRCEEDADGVTVWFTDGSSASGDLLIAADGSHSALRPWVLGFTPQRRYAGYVNWNGLVEIDEALAPGDQWTTFVGEGKRVSLMPVSAGRFYFFFDVPLPAGLAEDRDTLRADLSRYFAGWAPPVQKLIAALDPQTTNRIEIHDIEPFSRLVRGRVALLGDAGHSTTPDIGQGGCAAMEDAVVLGAVFRQTRDIAAALREYEAQRCDRVRDLVLKARKRCDITHGKDMQLTEAWYQELREETGERIINGMCDTILSGPLG |  | 42 ± 8 | 42 ± 2
